The record followed here is paper PMC8795526.

This assay addresses human neonatal Fc receptor (hFcRn) (human) (UniProt P55899). Description: SPR. On the technique in general: SPR reads the build-up and loss of mass on a sensor chip optically.
Sequence of UniProt P55899 (P55899 24-297, chain 1 of 2): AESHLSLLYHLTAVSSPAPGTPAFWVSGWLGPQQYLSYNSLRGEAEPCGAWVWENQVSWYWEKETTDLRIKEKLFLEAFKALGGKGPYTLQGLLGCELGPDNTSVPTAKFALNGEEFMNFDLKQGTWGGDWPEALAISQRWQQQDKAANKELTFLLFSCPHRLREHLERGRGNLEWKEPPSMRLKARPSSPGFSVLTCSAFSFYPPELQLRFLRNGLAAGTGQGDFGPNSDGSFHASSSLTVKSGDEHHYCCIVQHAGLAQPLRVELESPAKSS
Sequence of UniProt P55899 (P61769 21-119, chain 2 of 2, further chain): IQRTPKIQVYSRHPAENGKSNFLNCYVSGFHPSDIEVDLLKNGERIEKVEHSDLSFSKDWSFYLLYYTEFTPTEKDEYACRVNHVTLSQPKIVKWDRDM

3F6-hIgG1 (antibody): the Kd turned out to be 538 nM.

As a reminder, the Kd is the free concentration of one partner at which half of the binding sites on the other are occupied at equilibrium, for simple one-to-one binding.
